Assay [1] concerns the target human AmphiphysinII/Bin1 N-BAR domain (human). Description: double-mixing stopped-flow N assay (fluorescence); unfolded in 4 M urea, refolding at 1 to 5 μM N-BAR in 0.66 M urea for 0.1 to 300 s, then unfolding in 4.5 M urea; λ2 from the amplitudes of the fast unfolding phase λ5; 15°C; step: monomers to dimeric intermediate I2.
The target is the same in assay [2]. Description: stopped-flow refolding kinetics, single mixing (fluorescence); unfolded in 4 M urea, refolding by 11-fold dilution to 0.4 M urea, 0.1 to 5 μM N-BAR, 20 mM Na phosphate, 100 mM NaCl, pH 7.4, 15°C; step: two monomeric intermediates I to dimeric intermediate I2; λ2 fixed to the value from fluorescence anisotropy. (In general: Fluorescence polarisation rises when a labelled molecule tumbles more slowly, as on binding a larger partner.)

For one substance, λ2, second-order rate constant of the dimerization step results are on record in article PMC4569573.

In assay [1], “human AmphiphysinII/Bin1 N-BAR domain (domain or fragment)” showed a λ2, second-order rate constant of the dimerization step at 0.66 M urea, 1 μM N-BAR of 260000 M⁻¹ s⁻¹; a λ2, second-order rate constant of the dimerization step at 0.66 M urea, 2 μM N-BAR of 480000 M⁻¹ s⁻¹; a λ2, second-order rate constant of the dimerization step at 0.66 M urea, 5 μM N-BAR of 430000 M⁻¹ s⁻¹. The λ2, second-order rate constant of the dimerization step at 0.4 M urea in assay [2] came to 620000 M⁻¹ s⁻¹.
